Where a chain is given by its changes, count along the chain named.

For data set [1], the system named is v2_PPR2 (Artificial Sequence). Put plainly: ELONA.
The test system of data set [2] is v2_PPR3 (Artificial Sequence). Put plainly: ELONA.
For data set [3], the system named is v2_PPR1 (Artificial Sequence). Put plainly: ELONA.
Data set [4] has as its system v2_PPR5 (Artificial Sequence). Put plainly: ELONA.
Data set [5] deals with T1, v3.1_PPR7 (Artificial Sequence).
T1 chain: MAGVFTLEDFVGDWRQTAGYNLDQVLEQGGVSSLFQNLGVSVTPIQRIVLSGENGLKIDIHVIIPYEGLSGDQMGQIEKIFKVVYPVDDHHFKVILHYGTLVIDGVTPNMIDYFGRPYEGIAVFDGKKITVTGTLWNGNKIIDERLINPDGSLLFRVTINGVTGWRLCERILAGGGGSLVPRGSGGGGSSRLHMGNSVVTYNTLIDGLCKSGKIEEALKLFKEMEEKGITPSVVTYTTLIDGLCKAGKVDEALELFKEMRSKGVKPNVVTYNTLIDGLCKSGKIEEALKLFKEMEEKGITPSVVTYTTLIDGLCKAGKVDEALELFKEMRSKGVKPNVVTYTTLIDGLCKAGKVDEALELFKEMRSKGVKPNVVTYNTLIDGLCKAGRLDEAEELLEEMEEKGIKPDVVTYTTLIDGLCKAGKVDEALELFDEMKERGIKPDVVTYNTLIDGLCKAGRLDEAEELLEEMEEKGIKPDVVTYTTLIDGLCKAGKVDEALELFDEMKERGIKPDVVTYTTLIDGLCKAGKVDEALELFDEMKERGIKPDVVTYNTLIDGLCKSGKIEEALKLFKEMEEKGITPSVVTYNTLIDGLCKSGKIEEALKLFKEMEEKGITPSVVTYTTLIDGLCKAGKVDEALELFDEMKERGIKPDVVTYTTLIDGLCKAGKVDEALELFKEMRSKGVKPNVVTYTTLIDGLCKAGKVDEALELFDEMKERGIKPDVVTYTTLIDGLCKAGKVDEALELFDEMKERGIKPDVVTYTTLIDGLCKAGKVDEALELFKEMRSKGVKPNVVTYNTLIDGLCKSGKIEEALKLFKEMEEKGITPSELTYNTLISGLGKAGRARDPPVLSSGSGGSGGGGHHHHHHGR
Put plainly: ELONA; RPB-ELISA. The note with it: tags: luciferase fusion; label: 5'-biotin.

Data set [6] addresses T2, NL_v2_PPR7 (Artificial Sequence).
T2 chain: T1 chain with K248D, K318D, K353D, K668D, K773D
Put plainly: ELONA; RPB-ELISA. The conditions noted are these: tags: N-term luciferase, C-term 6xHis; label: 5'-biotin. For orientation: An ELISA detects its analyte on a solid surface through an enzyme-linked reagent.

In data set [7] the target is T3, v3.1_PPR6 (Artificial Sequence).
T3 chain: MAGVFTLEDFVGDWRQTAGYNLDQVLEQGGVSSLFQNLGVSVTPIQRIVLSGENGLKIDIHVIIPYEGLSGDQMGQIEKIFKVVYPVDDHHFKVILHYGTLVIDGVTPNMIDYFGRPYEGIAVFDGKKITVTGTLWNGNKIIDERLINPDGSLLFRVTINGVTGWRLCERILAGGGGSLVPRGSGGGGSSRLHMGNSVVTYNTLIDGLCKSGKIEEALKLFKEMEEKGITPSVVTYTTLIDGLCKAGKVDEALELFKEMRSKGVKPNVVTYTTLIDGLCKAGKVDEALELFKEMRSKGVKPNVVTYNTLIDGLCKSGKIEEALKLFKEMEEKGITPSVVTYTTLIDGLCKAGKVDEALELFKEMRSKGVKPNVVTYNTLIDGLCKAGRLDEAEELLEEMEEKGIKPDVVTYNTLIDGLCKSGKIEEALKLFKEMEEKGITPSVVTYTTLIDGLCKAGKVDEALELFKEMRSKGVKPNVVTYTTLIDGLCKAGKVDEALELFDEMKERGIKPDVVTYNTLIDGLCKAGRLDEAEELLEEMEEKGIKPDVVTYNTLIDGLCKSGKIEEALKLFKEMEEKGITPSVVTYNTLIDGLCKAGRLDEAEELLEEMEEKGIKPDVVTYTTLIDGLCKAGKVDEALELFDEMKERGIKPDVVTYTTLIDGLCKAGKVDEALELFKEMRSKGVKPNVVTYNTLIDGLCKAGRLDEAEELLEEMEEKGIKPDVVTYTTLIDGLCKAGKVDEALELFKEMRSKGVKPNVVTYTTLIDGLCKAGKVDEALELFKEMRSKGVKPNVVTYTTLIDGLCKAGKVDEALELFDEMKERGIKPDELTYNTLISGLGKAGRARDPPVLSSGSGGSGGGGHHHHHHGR
Put plainly: ELONA; RPB-ELISA. The conditions noted are these: tags: luciferase fusion; label: 5'-biotin.

Turning to GAGAGGAAGCCUGAGAGU [T_2 (in RNA_2)], in data set [1] (RPB-ELISA), the binding signal amounted to 5.7e+07 luminescence.

With GAAUGAACUCUUCCGGGA [T_1 (in RNA_1)], the binding signal (log2 luminescence) was 17 in data set [1] (off-target); 16.7 in data set [2] (off-target, on-target 25.00); 18.1 in data set [4] (off-target, on-target 25.83). The binding signal in data set [3] (RPB-ELISA) came to 6.6e+07 luminescence.

GGCAAAAAGAUCACUGUA [T_5 (in RNA_5)] showed a binding signal in data set [4] (RPB-ELISA) of 6e+07 luminescence.

For GACAUGCCACAAUGUGGCCGAGGACGACUG [RNA_7], the binding signal (log2 luminescence) in data set [1] (off-target cross-binding) is 24.8.

The molecule GACAUGCCAACAUCAGUCUGAUAAGGACUG [RNA_6] yielded a binding signal (log2 luminescence) in data set [3] (off-target, on-target 25.98) of 14.4.

On to CUGAGUCAUAACCAGCCU [T_3 (in RNA_3)], for which the binding signal in data set [2] (RPB-ELISA) came to 3.3e+07 luminescence.

As to GACAUGCCACAAUGUGGCCGAGGACGACUG (ssRNA) [RNA_7], the binding signal in data set [5] came to 3.4e+07 luminescence; in data set [6] it was 1.9e+07 luminescence.

In turn, GACAUGCCAACAUCAGUCUGAUAAGGACUG (ssRNA) [RNA_6] gave a binding signal in data set [7] of 6.1e+06 luminescence.

The values above are taken from patent US20220289795, “EFFICIENT METHOD FOR PREPARING PPR PROTEIN AND USE OF THE SAME” (EditForce, Inc., published 2022).
